Results taken from paper PMC9137774, “The ArsH Protein Product of the Paracoccus denitrificans ars Operon Has an Activity of Organoarsenic Reductase and Is Regulated by a Redox-Responsive Repressor” (Antioxidants, 2022).

Columns and labels:
[1] = target: T1, ArsR1 (Paracoccus denitrificans, UniProt A1B6S3); assay: size-exclusion chromatography: dimer to monomer; also EMSA and fluorescence anisotropy: release from operator DNA; format: binding; settings: 0.1 mM arsenite, 10 mM MOPS/0.1 M NaCl/15% glycerol pH 7.5
T1 construct: gene Pden_3136

[2] = system: Cc1cc2nc3c(=O)[nH]c(=O)nc-3n(C[C@H](O)[C@H](O)[C@H](O)COP(=O)(O)O)c2cc1C; assay: purified protein; settings: NADPH varied 5-150 μM, 0.1 M sodium phosphate pH 7.0, 30 °C, sequential ternary-complex mechanism
[3] = system: NC(=O)C1=CN([C@@H]2O[C@H](COP(=O)(O)OP(=O)(O)OC[C@H]3O[C@@H](n4cnc5c(N)ncnc54)[C@H](OP(=O)(O)O)[C@@H]3O)[C@@H](O)[C@H]2O)C=CC1; assay: purified protein; settings: co-substrate FMN (varied), 0.1 M sodium phosphate pH 7.0, 30 °C, sequential ternary-complex mechanism
[4] = target: Paracoccus denitrificans ArsH (Pden_3133 protein), recombinant N-His6-ArsH (Paracoccus denitrificans); assay: crystal structure; X-ray, 2.6 Å; sitting-drop vapor diffusion at 25 °C; molecular replacement with S. flexneri ArsH; four monomers in the asymmetric unit; interfaces analysed with PISA
[5] = target: Paracoccus denitrificans ArsR1 (product of pden_3136), recombinant with N-terminal hexahistidine tag (Paracoccus denitrificans); assay: SEC; Superose 12, 10 mM MOPS/0.1 M NaCl/15% glycerol pH 7.5, 0.5 mL/min; 500 μL of 40 μM ArsR1 loaded, untreated; calibrated with ribonuclease A, chymotrypsinogen A, ovalbumin and albumin
[6] = target: T2, ArsR2 (Paracoccus denitrificans, UniProt A1B7C2 1-120); assay: fluorescence anisotropy; Anisotropy: 10 mM MOPS, 0.1 M NaCl, 15% glycerol, pH 7.5 (Methods; Figure 9 legend says pH 7.0), 30 °C, 25 nM DNA; EMSA: 10 mM Tris-HCl, 50 mM NaCl, 0.5 mM EDTA, pH 8.0, room temperature, 10 µM DNA and 10 µM ArsR; settings: protein: recombinant; tags: N-terminal His6 (pET100/D-TOPO); chain copies: 2; label: 5'-FAM on strand 1; blunt
T2 sequence: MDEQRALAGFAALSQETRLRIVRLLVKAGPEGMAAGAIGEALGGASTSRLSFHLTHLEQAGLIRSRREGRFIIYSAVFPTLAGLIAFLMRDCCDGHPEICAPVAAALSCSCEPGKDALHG

[7] = target: T3, ArsR1 (Paracoccus denitrificans, UniProt A1B6S3 1-119); assay: as above; settings: protein: recombinant; tags: N-terminal His6 (pET100/D-TOPO); chain copies: 2; label: 5'-FAM on strand 1; blunt
T3 sequence: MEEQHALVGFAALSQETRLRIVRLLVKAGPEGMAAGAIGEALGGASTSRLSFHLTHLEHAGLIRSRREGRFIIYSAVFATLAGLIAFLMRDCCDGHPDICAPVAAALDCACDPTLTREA

## O[As](O)O [sodium arsenite]
[1]
  size-exclusion chromatography: dimer to monomer; also EMSA and fluorescence anis: arsenite or diamide-treated ArsR eluted at the monomer size

## ArsH (Pden_3133; N-His6-ArsH) (Paracoccus denitrificans PD1222)
[2]
  Km: 9.3 ± 0.7 µM
  kcat: 12.6 ± 0.4 s⁻¹
[3]
  Km: 12 ± 2 µM
  kcat: 12.6 ± 0.4 s⁻¹

## Paracoccus denitrificans ArsH (Pden_3133 protein), recombinant N-His6-ArsH (from UniProt A0A9X7N4T4 1-238) (enzyme)
[4]
  stoichiometry N: 4

## Paracoccus denitrificans ArsR1 (product of pden_3136), recombinant with N-terminal hexahistidine tag (natural protein)
[5]
  stoichiometry N: 2

B1: PDNA1 (dsDNA)
DNA 1: CTCAACATATCTTGAGAGGTTGATTCG
DNA 2: CGAATCAACCTCTCAAGATATGTTGAG
[6]
  Kd: 130 ± 20 nM
[7]
  Kd: 9 ± 1 nM

B2: PDNA2 (dsDNA)
DNA 1: ATCAACATATCTTGAGAGGTTGATTCG
DNA 2: CGAATCAACCTCTCAAGATATGTTGAT
[6]
  Kd: 140 ± 10 nM
[7]
  Kd: 26 ± 4 nM
